Results: patent US11312781B2, “Antigen binding molecules that bind LIGHT” (Capella Bioscience Ltd., priority 2018, dated 2022)

Assays:
[1] = molecular target: T1, DcR3 binding to membrane LIGHT (EL4-LIGHT cells) (Homo sapiens, UniProt O43557); assay: Competition binding of anti-membrane LIGHT antibodies with DcR3-His on EL4-LIGHT cells; conditions: mAb at up to 100 nM
T1 construct: expressed in transfected cells; host or cells: EL4 mouse lymphoma cells, stably transduced
Description: DcR3 (TNFRSF6B) is a decoy receptor that competes with receptors for ligand binding. DcR3 can bind and neutralise LIGHT with high affinity and TL1A and FasL with lower affinity (Zhan C et al. Structure. 2011, 19:162-71 “Decoy strategies: the structure of TL1A:DcR3 complex”). Stably transduced LIGHT-expressing EL4 cells (mouse lymphoma cell line; EL4-LIGHT) were used for the flow cytometry-based competition-binding analysis.
EL4-LIGHT cells (0.25×10^6) were preincubated with anti-membrane LIGHT mAbs (0-300 nM) for 15 min at 4° C. followed by incubation with DcR3-His tagged (1 nM, Creative BioMart; ref:TNFRSF6B-552H, lot:962512) for 30 min at 4° C. The samples were then incubated with mouse anti-histag antibody (diluted 1:500, Biolegend, cat. no. 652502) for 30 minutes at 4° C., followed by incubation with anti-mouse APC (dil 1:500, BDBiosciences, cat. no. 550826) for 30 minutes at 4° C. The tubes were washed three times after each of the detection antibody stages and flow cytometry analysis was performed. Specific mean fluorescence intensity (MFI) obtained from the binding of DcR3-His to LIGHT on EL4 cells were used to determine the levels of competition binding.

[2] = test system: wild type and mutated membrane LIGHT; assay: Alanine scanning mutagenesis of membrane LIGHT and flow cytometry (HEK293FF cells); format: binding, human
Source text: The full length LIGHT gene was synthesized by GeneArt (ThermoFisher Scientific) and cloned into the mammalian expression vector pcDNA 3.1(+). The following Ala mutations were introduced into the LIGHT gene: 30 single amino acid alanine substitutions from F57A to E86A; 2 single amino acid alanine substitutions; G188A, R189A; one serine substitution, A190S; 17 single amino acid alanine substitutions; T191A to V207A and 10 four amino acid alanine substitutions, 60-63, 64-67, 68-71, 72-75, 76-79, 80-83, 84-87, 88-91, 92-95 and 96-99. Constructs were reconstituted according to manufacture instructions, using DEPC-treated and sterile filtered water. Competent TOP10 E. coli cells were transformed with 100 ng of each construct and a single colony from each construct was picked and used to inoculate 10 ml of LB/carb100/glu2% medium and grown overnight at 37° C., 200 rpm. The extraction of the construct DNA was performed using the Qiagen QIAprep Spin Miniprep Kit (250) and the concentration was determined by measuring the O.D. at 260 nm in a spectrophotometer.
HEK293FF cells were cultured in Freestyle™293 expression medium (ThermoFisher scientific cat. no. 12338018) supplemented with 2 mM L-Glutamine. The day of transfection the cells were seeded in a 24-well plate at 0.6×10^6 cells/well. Lipofectamine 2000 (ThermoFisher scientific), 3 μl, was mixed with 50 μl OptiMEM medium (GIBCO) and then added to 50 μl Opti-MEM medium containing 3 ug plasmid DNA and incubated for 20 min at RT to form DNA-Lipofectamine 2000 complexes which were then added to the HEK293FF cells and incubated at 37° C., 5% CO2 for 24 hours. For each construct, in duplicate, 0.60×10^6 cells/well were used in a 96 well round bottom plate. Cells were centrifuged for 3 minutes at 300×g at 4° C., the supernatant discarded and the cells washed with 150 μl FACS buffer (0.5% FBS in phosphate buffered saline). This process was repeated 3 times. For each construct, […] cells/well were incubated with anti-LIGHT antibodies at the EC50 concentration and with positive controls of anti-LIGHT mAb MAB664 (R&D Systems), mAb F19 (EP2292663) or LTBR-Fc (R&D Systems), in a final volume of 50 μl/well for 30 min at 4° C., with shaking. The wells were washed 3 times as above and 50 μl/well of goat anti-human IgG FITC (1:1500 dilution in FACS buffer, SIGMA F9512-2ML) or goat anti-mouse APC (1/500 dilution in FACS buffer, BDBioscience 550826), as appropriate, was added to the wells and incubated for 30 min at 4° C. protected from the light, with shaking. The cells were then washed as above, resuspended in 100 μl of FACS buffer and binding of the antibodies to the constructs was measured using flow cytometry and a total of 10,000 cells were acquired for each sample. Controls of buffer and secondary antibody only as well as HEK293FF non transfected cells were also used.
All of the mAbs of this invention show a similar profile in that their epitope is located at amino acids 188-197 of LIGHT. […] The epitope of the mAbs of this invention defined by alanine scanning mutagenesis are residues 188-197 of LIGHT. This is visually depicted in FIG. 8 utilising a 3D visualisation of the LIGHT trimer from the crystal structure of LIGHT from Liu et al. (Structure 22: 1252-62; 2014). This would result in the mAbs binding to the “tip” of the LIGHT trimer and explaining the 1:1 binding. The impact of this epitope would result in […] less dosing of mAb 3B04 being required to neutralise membrane LIGHT compared to, for example, mAbs F19 and F23 (of EP2292663) which bind both soluble and membrane LIGHT equally and bind LIGHT in the ratio 3:1.

[3] = test system: CMV stimulated human PBMC; assay: Human PBMC antigen specific (CMV) recall response in vitro, cytokines by Luminex; format: cell-based; conditions: CMV stimulation, 5 day incubation
Description: In order to test the efficacy of anti-LIGHT mAbs on stimulated PBMC a recall antigen CMV (cytomegalovirus) lysate was utilised to stimulate PBMC from human CMV-positive donors (ImmunXperts, Belgium). 200 000 cells per well in RPMI (Thermofisher cat. no. 11875) plus 10% FBS (GIBCO) was added to CMV lysate (Serion immunologics cat. no. BA109VS, final concentration 10 ug/ml) with test mAbs in a volume of 200 ul. After a 5 day incubation at 37C and 5% CO2 the media was recovered by centrifugation and assayed for cytokines by Luminex immunoassay (ThermoFisher).

[4] = test system: DSS-induced colitis in hu-NOG mice; assay: DSS-induced acute colitis in humanized (hu-NOG) mice; format: in vivo, mouse (hu-NOG)
Description: The experiments were carried out with the NOD/Shi-scid/IL-2Rγnull immunodeficient mouse strain (NOG) engrafted with CD34+ hematopoietic stem cells isolated from human cord blood as described in Manfroi B et al. (Cancer Res. 2017; 77:1097-1107). The reconstitution of the human immune system in the mice occurred for at least 14 weeks, and hu-mice were used that had at least 25% human CD45+/total CD45 cells. Female hu-NOG mice were randomised into 3 groups (n=10) taking into account the humanization rate and the CD34+ cell donors. All animal studies described in this study have been reviewed and approved by the local ethic committee (CELEAG). Mice were allowed to acclimate to the experimental environment for 5 days prior to the beginning of the experiment. The DSS was administrated for 7 days, from day 2 to 8. The DSS (3%) was added to the drinking water (ad libitum) and freshly renewed every two days.
All treatments started before the DSS-induced colitis. 3B04 variant 16 (5 mg/kg) and the isotype control and anti-TNF (Humira) antibodies (10 mg/kg) were administrated i.p. on days 0, 3, 6, 9. The experiment was terminated on day 12. The following parameters were recorded daily for 12 days: body weight in grams (g); diarrhea and stool consistency; bleeding and mortality. The global clinical score was calculated as follows: […]

T1 sequence (O43557 whole entry): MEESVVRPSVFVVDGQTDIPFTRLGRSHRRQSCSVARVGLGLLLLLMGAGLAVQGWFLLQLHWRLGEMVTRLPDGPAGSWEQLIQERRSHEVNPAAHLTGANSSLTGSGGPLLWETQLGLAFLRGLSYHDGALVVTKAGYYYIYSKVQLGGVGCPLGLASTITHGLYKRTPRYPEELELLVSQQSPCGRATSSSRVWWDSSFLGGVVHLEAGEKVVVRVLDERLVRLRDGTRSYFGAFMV

B1: 2E08: parental anti-membrane LIGHT antibody, VL SEQ ID NO 81, VH SEQ ID NO 85; chimeric IgG4 mAb (antibody, listed as Homo sapiens, V domains shown)
VH: QVQMKESGAELVRPGVSVKISCKGSGYTFTDYAIHWVKQSHAKTLEWIGVISTYYGDASYNQKFKGKATMTVDKSSSTAYMELARLTSDDSAIYYCARSRGEYGNYDAMDYWGQGTSVTVSS
VL: DIVLTQSPASLAVSLGQRATISCKASQSVDYDGDSYMNWYQQKPGQPPKLLIYAASNLESGIPARFSGSGSGTDFTLNIHPVEEEDAATYYCQQSNEDPLTFGAGTKLELK
[1]
  Inhibition of DcR3 binding to membrane LIGHT: only partially inhibit

B2: LTBR-Fc: LTBR-Fc receptor fusion protein (R&D Systems), positive control in alanine scanning (protein)
chain: SQPQAVPPYASENQTCRDQEKEYYEPQHRICCSRCPPGTYVSAKCSRIRDTVCATCAENSYNEHWNYLTICQLCRPCDPVMGLEEIAPCTSKRKTQCRCQPGMFCAAWALECTHCELLSDCPPGTEAELKDEVGKGNNHCVPCKAGHFQNTSSPSARCQPHTRCENQGLVEAAPGTAQSDTTCKNPLEPLPPEMSGTMLM
modifications: left off: a dimerising Fc or GST
notes: LTBR-Fc receptor fusion protein (R&D Systems), positive control in alanine scanning
[2]; single substitutions F57A to E86A and four amino acid substitutions 60-63 to 96-99
  Binding to LIGHT alanine substitution constructs versus WT LIGHT: no difference in binding
[2]; substitutions G188A to V207A
  Binding to LIGHT amino acid substitution constructs versus WT LIGHT: no difference in binding

B3: 3A07: parental anti-membrane LIGHT antibody, VL SEQ ID NO 97, VH SEQ ID NO 101; chimeric IgG4 mAb (antibody, listed as Homo sapiens, V domains shown)
VH: QVQLQQSGAELVRPGAPVTLSCKASDYTFTDSEIHWVKQTPVHGLEWIGEIDPETGGTAYNQKFKGKATLTADKSSSTAYMELRSLTSEDSAVYYCSRETDYFFDYWGQGTTLTVSS
VL: ENVLTQSPAIMSASPGEKVTMTCSASSSVSYMYWYQQRPGSSPRLLIYDTSNLASGVPVRFSGSGSGTSYSLTISRMEAEDAATYYCQQWSSYPLTFGSGTKLEIK
[1]
  Inhibition of DcR3 binding to membrane LIGHT: only partially inhibit

B4: 3C10: parental anti-membrane LIGHT antibody, VL SEQ ID NO 89, VH SEQ ID NO 93; chimeric IgG4 mAb (antibody, listed as Homo sapiens, V domains shown)
VH: EVQLQQSGAELVRPGASVTLSCKASDYTFTDSEIHWVKQTPVHGLEWIGEIDPETGGTAYNQKFKGKATLTADKSSSTAYMELRSLTSEDSAVYYCSRETDYFFDYWGQGTTLTVSS
VL: DVVMTQTPAIMSASPGEKVTMTCSASSSVSYMYWYQQKPGSSPRLLIYDTSNLASGVPVRFSGSGSGTSYSLTISRMEAEDAATYYCQQWSSYPLTFGAGTKLELK
[1]
  Inhibition of DcR3 binding to membrane LIGHT: only partially inhibit

B5: 3B04_var16: deimmunised 3B04 IgG4 variant: 3B04_VL_4 (SEQ ID NO 33) + 3B04_VH_4 (SEQ ID NO 37) (antibody, listed as Homo sapiens, V domains shown)
VH: QVQLVQSGAEVKKPGASVKVSCKASGYTFTDYEMHWVRQAPGQGLEWMGEIDPETGDTAYAQKFQGRVTLTADKSTSTAYMELSSLRSEDTAVYYCSRETDYFFDYWGQGTLVTVSS
VL: DIQMTQSPSSLSASVGDRVTITCRASENIYGALNWYQQKPGKAPKLLIYGATNLAEGVPSRFSGSGSGRDYTLTISSLQPEDFATYYCQNVLTTPWTFGQGTKLEIKR
[3]; FIG. 11A
  IL-17 production from PBMC: significantly (p<0.05) inhibited
[3]; FIG. 11B
  IFN gamma production from PBMC: significantly (p<0.05) inhibited
[3]; FIG. 11C
  TNF production from PBMC: significantly (p<0.05) inhibited
[3]; FIG. 11D
  IL-6 production from PBMC: significantly (p<0.05) inhibited
[3]; FIG. 11E
  IL-12p70 production from PBMC: significantly (p<0.05) inhibited
[4]; 3B04 variant 16 5 mg/kg, Humira 10 mg/kg
  Effect on global clinical score compared to the anti-TNF positive control: significantly superior (p<0.05)
[4]; i.p. days 0, 3, 6, 9, versus IgG control, FIG. 9
  Global clinical score: significant (p<0.05) decrease in global clinical score as early as day 2
